Results on one molecule are retold here after patent US20200369777A1 (Bristol-Myers Squibb, published 2020).

The target in test [1] is T1, human OX40 (human, UniProt P43489 29-277).
T1 construct: also called TNFRSF4; CD134
T1 sequence: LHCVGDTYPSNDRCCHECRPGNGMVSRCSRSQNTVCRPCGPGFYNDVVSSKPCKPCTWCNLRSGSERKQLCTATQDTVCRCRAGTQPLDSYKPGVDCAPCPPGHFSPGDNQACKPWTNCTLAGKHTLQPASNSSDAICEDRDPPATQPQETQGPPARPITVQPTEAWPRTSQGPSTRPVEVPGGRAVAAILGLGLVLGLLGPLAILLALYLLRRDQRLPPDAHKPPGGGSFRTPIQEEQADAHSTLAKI
Briefly: Emax PK-PD model: trough serum concentration (Cmin1) against blood receptor occupancy on CD4+ T cells at C2D1, 16 cancer patients, flow cytometry; in vivo blood receptor occupancy vs trough serum concentration (Cmin1), Emax PK-PD model; not an in vitro titration. The source says:
(§1) This Example describes a PK-PD model for predicting receptor occupancy in human patients. The drug concentration-time profile was described by a linear two-compartment PK model using population PK analysis. […] The individual drug exposure (Cmin1: trough concentration after first dose) in the alternative dose schedule was predicted based on the PPK model, which was used in subsequent PK-PD model development.
(§2) wherein drug concentration is Cmin1, the trough concentration after first dose, ROₘₐₓ is the maximum percentage of blood RO and EC₅₀ is the drug concentration corresponding to 50% of ROₘₐₓ. From this analysis, the drug EC₅₀ was estimated to be 0.094 μg/mL (FIG. 8B). The trial […] was conducted to predict blood RO at alternative dosing schedules by using the established PK-PD relationship (Emax model), as well as taking into account inter-subject variability of PK and PD (FIG. 9).
(Flow cytometry measures light scatter and fluorescence of single cells or particles in a stream.)

Test [2] concerns the target T1, human OX40. Description: Flow cytometry receptor occupancy on human CD4+ T cells cultured with CHO-OKT3-CD32A cells.
The target in the next test is T2, cynomolgus OX40 (cynomolgus, UniProt P43489 29-277 (human entry)).
T2 chain: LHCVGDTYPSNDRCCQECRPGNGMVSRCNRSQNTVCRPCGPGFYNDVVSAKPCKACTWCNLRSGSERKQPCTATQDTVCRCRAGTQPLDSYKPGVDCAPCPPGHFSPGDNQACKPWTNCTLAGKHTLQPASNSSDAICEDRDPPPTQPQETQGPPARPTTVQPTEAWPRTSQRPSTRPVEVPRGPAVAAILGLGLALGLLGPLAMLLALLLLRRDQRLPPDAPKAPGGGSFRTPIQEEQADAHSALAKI
Description: flow cytometry, binding to activated cynomolgus T cells.

For test [3], the target named is T1, human OX40. Description: Flow cytometry receptor occupancy on human CD4+ T cells cultured with CHO-OKT3-CD32A cells. This is another data set of the same source.
Another test addresses T3, mouse OX40 (mouse, UniProt P47741 20-272).
T3 construct: whole, on cells; also called murine OX40
T3 sequence (looked up): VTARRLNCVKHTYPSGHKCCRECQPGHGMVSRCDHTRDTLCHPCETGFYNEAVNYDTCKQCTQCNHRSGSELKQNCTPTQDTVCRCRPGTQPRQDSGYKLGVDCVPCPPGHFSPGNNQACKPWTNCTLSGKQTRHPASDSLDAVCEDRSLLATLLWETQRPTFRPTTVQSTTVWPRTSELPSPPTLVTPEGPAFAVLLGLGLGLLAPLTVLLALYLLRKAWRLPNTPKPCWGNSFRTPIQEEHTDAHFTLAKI
Briefly: flow cytometry, binding to activated mouse T cells.

For test [4], the target named is T1, human OX40. Description: Flow cytometry on human CD4+ T cells cultured with CHO-OKT3-CD32A cells; bound OX40.21 detected with APC anti-human Fc. Total surface OX40 changes along the same titration. As for the experimental part:
Briefly, total T cells were purified from human whole blood using Ficoll gradient centrifugation. CD4+ T cells were isolated from PBMCs using the Miltenyi CD4+ isolation kit. Isolated T cells were cultured in the presence of irradiated CHO-OKT3-CD32A (artificial antigen presenting cells) and in the presence of serial dilutions of OX40.21 or isotype control. Receptor occupancy was determined as the ratio of bound OX40 antibody to total surface OX40 using flow cytometry. Bound antibody was assessed by adding fluorescent conjugated anti-human Fc after washing the T cells. Total OX40 was determined by adding a saturating amount of OX40 antibody to the T cells. Following incubation, cells were washed and stained by adding fluorescent conjugated anti-human FC.

The target in test [5] is T1, human OX40. Briefly: Emax model (RO = Emax x Cmin1 / (EC50 + Cmin1)) of the trough concentration after the first dose against peripheral blood RO on CD4+ T cells at C2D1 in patients. The text prints the value rounded, 0.094 ug/mL. No Emax value is printed; the median curve runs from about 92 % at 20 mg to about 99 % at 320 mg.
Text: as §1, §2

For test [6], the target named is T1, human OX40. Description: cell-based or functional assay.
The target in test [7] is T1, human OX40. Briefly: flow cytometry, binding to activated human T cells.

B1: OX40.21 (antibody, human IgG1, kappa, V domains shown)
VH: EVQLVQSGGGLVQPGGSLRLSCAGSGFTFSSYAMYWVRQAPGKGLEWVSAIDTDAGTFYADSVRGRFTISRDNAKNSLYLQMNSLRAEDTAVYFCARLGEGYFFDYWGQGTLVTVSS
VL: EIVLTQSPATLSLSPGERATLSCRASQSVSSYLAWYQQKPGQAPRLLIYDASNRATGIPARFSGSGSGTDFTLTISSLEPEDFAVYYCQQRSNWPPTFGGGTKVEIKR
notes: also called OX40.21 (human)
A word on the EC50: it is the midpoint of the concentration-response curve. The term EC50 (read off the curve) denotes the midpoint of the concentration-response curve. Low readings indicate higher potency in that assay, high ones lower potency in that assay. For B1, the EC50 with human OX40 [1] worked out at 0.094 mg/L; with cynomolgus OX40, 0.068 nM; with human OX40 [5], 0.0937 mg/L; in the test with human OX40 [7] it was 0.072 nM. In addition, the “EC50 (read off the curve)” value is about 0.3 nM in the test with human OX40 [2], about 0.3 nM in the test with human OX40 [3] and about 0.1 nM with human OX40 [4]. The binding result with mouse OX40 is reported as “no binding”. In addition, in the test with human OX40 [6], the “EC50 of internalization (mean circle spot total intensity) in CD3/CD28-activated Tregs. The table prints no unit; the axis is 'Log nM Ab'” value was 0.0779 nM.
